According to patent publication US20210238253A1 (GUANGDONG ZHAOTAI INVIVO BIOMEDICINE, published 2021):

T1: CD19 expressed by Nalm6 cells (UniProt P15391 20-556, limits assumed)
T1 construct: whole, on cells; Endogenous CD19 on tumor cell lines; also called Nalm6/GL; CD19 antigen on RAJI-GL and NALM6-GL tumor cells
T1 sequence (looked up): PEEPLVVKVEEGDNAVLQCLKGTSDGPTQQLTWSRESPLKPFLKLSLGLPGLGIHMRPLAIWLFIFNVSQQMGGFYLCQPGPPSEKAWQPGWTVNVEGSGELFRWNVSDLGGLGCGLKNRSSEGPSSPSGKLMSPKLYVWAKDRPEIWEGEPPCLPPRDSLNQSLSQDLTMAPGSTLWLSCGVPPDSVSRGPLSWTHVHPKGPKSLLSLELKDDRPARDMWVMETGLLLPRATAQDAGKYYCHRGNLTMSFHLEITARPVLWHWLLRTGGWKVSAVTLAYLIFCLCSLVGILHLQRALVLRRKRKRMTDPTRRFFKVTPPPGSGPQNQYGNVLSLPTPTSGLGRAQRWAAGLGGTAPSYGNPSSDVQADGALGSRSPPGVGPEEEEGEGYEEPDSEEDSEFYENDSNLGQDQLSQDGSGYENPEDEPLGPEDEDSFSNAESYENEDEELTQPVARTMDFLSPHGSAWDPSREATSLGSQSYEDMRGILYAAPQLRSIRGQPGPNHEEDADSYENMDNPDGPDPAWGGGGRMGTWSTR

T2: hCD19-his (human CD19 recombinant protein, Pro20-Lys291, His tag at C-terminus) (human, UniProt P15391 20-291)
T2 construct: range 20-291; also called human CD19-His
T2 sequence (looked up): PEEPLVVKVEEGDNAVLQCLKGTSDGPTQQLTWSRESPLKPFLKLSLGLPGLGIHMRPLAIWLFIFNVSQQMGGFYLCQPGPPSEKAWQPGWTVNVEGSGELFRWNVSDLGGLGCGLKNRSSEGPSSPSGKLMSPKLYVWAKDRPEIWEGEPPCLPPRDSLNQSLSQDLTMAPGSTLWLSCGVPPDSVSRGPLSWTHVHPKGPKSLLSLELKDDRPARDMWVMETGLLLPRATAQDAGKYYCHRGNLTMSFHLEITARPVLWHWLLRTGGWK

T3: CD19 expressed by Nalm6 cells (UniProt P15391 20-556)
T3 chain: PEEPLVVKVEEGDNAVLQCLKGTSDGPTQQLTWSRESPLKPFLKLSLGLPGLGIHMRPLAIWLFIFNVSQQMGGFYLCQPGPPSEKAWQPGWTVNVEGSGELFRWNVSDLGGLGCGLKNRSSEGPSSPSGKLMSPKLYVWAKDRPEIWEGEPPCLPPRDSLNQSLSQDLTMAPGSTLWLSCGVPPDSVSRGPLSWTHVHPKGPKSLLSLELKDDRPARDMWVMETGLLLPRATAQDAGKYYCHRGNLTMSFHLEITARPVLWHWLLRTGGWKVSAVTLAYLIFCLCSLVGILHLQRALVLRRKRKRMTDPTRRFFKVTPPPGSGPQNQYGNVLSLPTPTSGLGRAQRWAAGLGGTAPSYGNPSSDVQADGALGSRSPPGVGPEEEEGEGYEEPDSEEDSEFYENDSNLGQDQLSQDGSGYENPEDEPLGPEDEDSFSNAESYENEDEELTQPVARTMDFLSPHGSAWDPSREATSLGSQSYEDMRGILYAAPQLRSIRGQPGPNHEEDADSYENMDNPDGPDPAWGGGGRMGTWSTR

T4: hLAG3 (human, UniProt P18627 23-450, limits assumed)
T4 construct: Coated antigen of the specificity ELISA
T4 sequence (looked up): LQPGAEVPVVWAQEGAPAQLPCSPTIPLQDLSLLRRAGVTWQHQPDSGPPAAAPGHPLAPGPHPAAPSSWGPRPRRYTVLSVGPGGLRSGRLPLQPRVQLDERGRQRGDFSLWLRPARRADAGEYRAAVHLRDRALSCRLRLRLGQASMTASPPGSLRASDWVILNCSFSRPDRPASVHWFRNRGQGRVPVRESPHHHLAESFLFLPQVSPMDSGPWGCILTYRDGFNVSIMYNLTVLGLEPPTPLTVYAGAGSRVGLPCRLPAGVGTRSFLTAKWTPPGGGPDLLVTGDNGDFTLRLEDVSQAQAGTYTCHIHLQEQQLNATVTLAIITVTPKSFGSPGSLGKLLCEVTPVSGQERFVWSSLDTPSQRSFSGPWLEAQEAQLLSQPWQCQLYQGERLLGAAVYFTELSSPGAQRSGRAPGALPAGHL

T5: hVISTA-his (human, UniProt Q9H7M9 33-194)
T5 construct: Coated antigen of the specificity ELISA
T5 sequence (looked up): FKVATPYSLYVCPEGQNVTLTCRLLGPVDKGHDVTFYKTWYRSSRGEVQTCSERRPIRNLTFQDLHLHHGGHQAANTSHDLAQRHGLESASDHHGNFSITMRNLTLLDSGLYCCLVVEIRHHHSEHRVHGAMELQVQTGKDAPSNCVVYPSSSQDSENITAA


What was measured:
[1] = biological target: T1, CD19 expressed by Nalm6 cells; assay: flow cytometry on Nalm6 cells
Description: The CD19-expressing tumor cells Nalm6 in logarithmic growth phase were collected and resuspended in PBS at a cell density of 10⁵/well, 100 μl/well. The diluted CD19 antibodies were added into the well and incubated at 4° C. for 1 hour. The cells were washed three times with flow cytometry wash buffer. Anti-rat IgG-Alexa Fluor 647 (Abcam, Cat #ab150163) was added and incubated at 4° C. for 1 hour. The cells were washed three times with flow cytometry wash buffer. The samples were analyzed by flow cytometry. The results are shown in FIG. 3 and Table 4, as follows: […]

[2] = biological target: T2, hCD19-his (human CD19 recombinant …); assay: ELISA, coated hCD19-His
Description: The antibodies were screened by ELISA according to Example 2. Briefly, […] of hCD19-His (ACRO) were spread and incubated. The purified antibodies were serially diluted to bind the incubated antigen. The binding signal of each antibody could be detected with HRP-labeled goat anti-rat Fc antibody.
Graphpad Prism software was used to calculate the fitting data.

[3] = biological target: T3, CD19 expressed by Nalm6 cells; assay: flow cytometry
h41BB = biological target: T6, h41BB (human, UniProt Q07011 24-186); assay: ELISA, coated antigen 0.5 µg/ml
T6 construct: Coated antigen of the specificity ELISA
Description: (§1) According to the method described in Example 4, 0.5 μg/ml of hCD19-His, hVISTA-his, hPD-L1, hCD40, h41BB and hLAG3 were spread and incubated respectively, and 2μg/ml of purified antibodies were added to bind the incubated antigen. The binding signal of each antibody could be detected with HRP-labeled goat anti-rat Fc antibody.

hCD40 = biological target: T7, hCD40 (human, UniProt P25942 21-193); assay: ELISA, coated antigen 0.5 µg/ml
T7 construct: Coated antigen of the specificity ELISA
T7 sequence (P25942 21-193 limits assumed): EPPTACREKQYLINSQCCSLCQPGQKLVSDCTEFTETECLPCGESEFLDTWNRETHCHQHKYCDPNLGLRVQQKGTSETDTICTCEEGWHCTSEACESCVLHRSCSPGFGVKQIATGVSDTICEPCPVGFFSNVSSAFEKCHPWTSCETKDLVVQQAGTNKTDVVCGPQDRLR
Description: as §1

hLAG3 = biological target: T4, hLAG3; assay: ELISA, coated antigen 0.5 µg/ml
Description: as §1

hVISTA-his = biological target: T5, hVISTA-his; assay: ELISA, coated antigen 0.5 µg/ml
Description: as §1

hPD-L1 = biological target: T8, hPD-L1 (human, UniProt Q9NZQ7 19-238, limits assumed); assay: ELISA, coated antigen 0.5 µg/ml
T8 construct: Coated antigen of the specificity ELISA
T8 sequence (Q9NZQ7 19-238 limits assumed): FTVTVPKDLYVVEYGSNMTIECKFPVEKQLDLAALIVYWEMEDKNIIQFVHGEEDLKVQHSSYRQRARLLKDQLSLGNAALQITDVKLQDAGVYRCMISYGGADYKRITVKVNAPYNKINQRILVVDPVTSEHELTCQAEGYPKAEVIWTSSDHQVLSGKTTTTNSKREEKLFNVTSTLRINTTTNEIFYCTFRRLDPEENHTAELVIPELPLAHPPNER
Description: as §1

[4] = biological target: T2, hCD19-his (human CD19 recombinant …); assay: ELISA, coated hCD19-His, fully humanized antibody titrated
Description: According to the method described in Example 4, 0.5 μg/ml of hCD19-His was spread and incubated. The fully humanized antibodies were serially diluted and added to bind the incubated antigen. The binding signal of each antibody could be detected with HRP-labeled goat […] Fc antibody. The results are shown in FIG. 5 and Table 5, as follows: […]

Maximum mean fluorescence intensity (30 µg/ml) [1]	EC50 [2] [µg/mL]	EC50 [3] [µg/mL]	binding result (h41BB)	binding result (hCD40)	binding result (hLAG3)	binding result (hVISTA-his)	binding result (hPD-L1)	EC50 [4] [µg/mL]	Binder
24700	0.0249	22.9	no binding (tested: 2 µg/ml)	no binding (tested: 2 µg/ml)	no binding (tested: 2 µg/ml)	no binding (tested: 2 µg/ml)	no binding (tested: 2 µg/ml)		31A2 (hybridoma antibody) (antibody, V domains shown, hybridoma mAb from H2L2 mouse (human variable, rat constant regions)) VH: QVQLVESGGGVVQPGRSLRLSCAASGFTFSRHGMHWVRQAPGKGLEWVAVIWYDGSNKYYVDSVKGRFTISRDNSKNTLDLQMNSLRAEDTAVYYCARRSITWDGAFDIWGQGTMVTVSS VL: DIQMTQSPSTLSASVGDRVTISCRASQSISSWLAWYQQKPGKAPKLLIYKASSLESGVPSRFSGSGSGTEFTLTISSLQPDDFATYYCQQYNSAYTFGQGTKLEIK
								0.00446	31A2 fully humanized antibody (recombinant, human IgG1 / kappa) (antibody, V domains shown) VH: QVQLVESGGGVVQPGRSLRLSCAASGFTFSRHGMHWVRQAPGKGLEWVAVIWYDGSNKYYVDSVKGRFTISRDNSKNTLDLQMNSLRAEDTAVYYCARRSITWDGAFDIWGQGTMVTVSS VL: DIQMTQSPSTLSASVGDRVTISCRASQSISSWLAWYQQKPGKAPKLLIYKASSLESGVPSRFSGSGSGTEFTLTISSLQPDDFATYYCQQYNSAYTFGQGTKLEIK
								0.00452	17B6 fully humanized antibody (recombinant, human IgG1 / kappa) (antibody, V domains shown) VH: QVQLVESGGGVVQPGRSLRLSCEASGFTFSRHGMHWVRQAPGKGLEWVAVIFYDGSQNYYADSVRGRFTISRDNSKNTLSLQMDSLRAEDTAVYYCARRSITWNGGFDIWGQGTMVTVSP VL: DIQMTQSPSTLSASVGDRVTITCRASQSISSWLAWYQQKPGKAPKLLIYKASSLESGVPSRFSGSGSGTEFTLAISSLQPDDFATYYCQQYNRFYTFGQGTKLEIK
								0.00263	11H8 fully humanized antibody (recombinant, human IgG1 / kappa) (antibody, V domains shown) VH: QVQLVESGGGVVQPGRSLRLSCAASGFTFSRHGMHWVRQAPGKGLEWVAVIWYDGSNQYYVDSVKGRFTISRDNSKNTLDLQMNSLRVEDTAVYYCARRSITWYGGFDIWGQGTMVTVSS VL: DIQMTQSPSTLSASVGDRVTITCRASQSISSWLAWYQQKPGKAPKLLIYKASSLESGVPPRFSGSGSGTEFTLTISSLQPDDFATYYCQQYNSAYTFGQGTKLEIK
								0.00378	15F2 fully humanized antibody (recombinant, human IgG1 / kappa) (antibody, V domains shown) VH: QVQLVESGGGVVQPGRSLRLSCAASGFTFSRHGMHWVRQAPGKGLEWVAVIWYDGSNKYYVDSVKGRFTISRDNSKNTLDLQMNSLRAEDTAVYYCARRSITWDGAFDIWGQGTMVTVSS VL: DIQMTQSPSTLSASVGDRVTVTCRASQSIRSWLAWYQQKPGKAPKLLIYKASSLESGVPSRFSGSGSGTEFTLTISSLQPDDFATYYCQQYNSAYTFGQGTKLEIK
21700	0.0287	24.6	no binding (tested: 2 µg/ml)	no binding (tested: 2 µg/ml)	no binding (tested: 2 µg/ml)	no binding (tested: 2 µg/ml)	no binding (tested: 2 µg/ml)		15F2 (hybridoma antibody) (antibody, V domains shown, hybridoma mAb from H2L2 mouse (human variable, rat constant regions)) VH: QVQLVESGGGVVQPGRSLRLSCAASGFTFSRHGMHWVRQAPGKGLEWVAVIWYDGSNKYYVDSVKGRFTISRDNSKNTLDLQMNSLRAEDTAVYYCARRSITWDGAFDIWGQGTMVTVSS VL: DIQMTQSPSTLSASVGDRVTVTCRASQSIRSWLAWYQQKPGKAPKLLIYKASSLESGVPSRFSGSGSGTEFTLTISSLQPDDFATYYCQQYNSAYTFGQGTKLEIK
								0.004	27F11 fully humanized antibody (recombinant, human IgG1 / kappa) (antibody, V domains shown) VH: QVQLVESGGGVVQPGRSLRLSCAASGFTFSRHGMHWVRQAPGKGLEWVAVIYYDGSNKYYVDSVKGRFTISRDNSKNTLDLQMNSLRAEDTAVYYCARRSITWNGAFDIWGQGTMVTVSS VL: DIQMTQSPSTLSASVGDRVTISCRASQSISSWLAWYQQKPGKAPKLLIYKASSLESGVPSRFSGSGSGTEFTLTISSLQPDDFATYYCQQYNSAYTFGQGTKLEIK
10400	0.0737								19D6 (antibody, V domains shown, hybridoma mAb from H2L2 mouse (human variable, rat constant regions)) VH: QVQLVESGGGVVQPGRSLRLSCAASGFTFSRHGMHWVRQAPGKGLEWVAVIWYDGSNKYYVDSVKGRFTISRDNSKNTLDLQMNSLRAEDTAVYYCARRSITWDGAFDIWGQGTMVTVSS VL: DIQMTQSPSTLSASVGDRVTVTCRASQSIRSWLAWYQQKPGKAPKLLIYKASSLESGVPSRFSGSGSGTEFTLTISSLQPDDFATYYCQQYNSAYTFGQGTKLEIK
23300	0.0301	11.8	no binding (tested: 2 µg/ml)	no binding (tested: 2 µg/ml)	no binding (tested: 2 µg/ml)	no binding (tested: 2 µg/ml)	no binding (tested: 2 µg/ml)		11H8 (hybridoma antibody) (antibody, V domains shown, hybridoma mAb from H2L2 mouse (human variable, rat constant regions)) VH: QVQLVESGGGVVQPGRSLRLSCAASGFTFSRHGMHWVRQAPGKGLEWVAVIWYDGSNQYYVDSVKGRFTISRDNSKNTLDLQMNSLRVEDTAVYYCARRSITWYGGFDIWGQGTMVTVSS VL: DIQMTQSPSTLSASVGDRVTITCRASQSISSWLAWYQQKPGKAPKLLIYKASSLESGVPPRFSGSGSGTEFTLTISSLQPDDFATYYCQQYNSAYTFGQGTKLEIK
								0.00792	52F9 fully humanized antibody (recombinant, human IgG1 / kappa) (antibody, V domains shown) VH: QVQLVESGGGVVQAGRSLRLSCAASGFTFSNYGIHWVRQAPGKGLEWVGVIWHDGSIKNYADFVKGRFTISRDNSEDTLYLQMNSLRAEDTAVYYCAREQGNYYGWGSYKAFDIWGQGTMVTVSS VL: DIQLTQSPSFLSVFVGDRVTITCRASQGISNYLAWYQQKPGKAPELLLYATSTLQSGVPSRLSGSGSGTEFTLTLSSLQPEDFATYYCQQVYSFPYTFGQGTKLEIK
